Assay results: US20050208120A1

Legend:
[1] = target: T cell receptor of the I-A^d restricted OVA specific T cell hybridoma 8DO51.15; experiment: flow cytometry; biotinylated MHC in liposomes, no peptide
[2] = target: T cell receptor of the I-A^d restricted OVA specific T cell hybridoma 8DO51.15; experiment: flow cytometry; liposome:MHC:b-peptide with streptavidin-FITC on hybridoma cells, final MHC concentration 66 ug/ml
[3] = target: T cell receptor of the I-A^d restricted OVA specific T cell hybridoma 8DO51.15; experiment: flow cytometry; correct restriction element, irrelevant peptide, on 8D051.15 cells
[4] = target: T cell receptors of T cell populations derived from Iα52-supplemented FTOC and expanded with Hi15
[5] = target: T cell receptors of T cell populations derived from Iα52-supplemented FTOC and expanded with Hi15; experiment: flow cytometry; cells from Iα52-supplemented FTOC after two weeks with 10 ug/ml Hi15; polyclonal
[6] = target: T cell receptors of CD4+ cells from BALB/c fetal thymic organ culture (FTOC); experiment: flow cytometry T cell capture; FTOC alone without added peptide; polyclonal thymocytes
[7] = target: T cell receptors of CD4+ T cells from regional draining lymph nodes of BALB/c mice; experiment: flow cytometry T cell capture; lymph node cells of Iα52-immunized BALB/c mice; polyclonal
[8] = target: T cell receptors of CD4+ T cells from regional draining lymph nodes of BALB/c mice; experiment: flow cytometry T cell capture; lymph node cells of IFA-only immunized BALB/c mice; polyclonal
[9] = target: T cell receptors of CD4+ cells from BALB/c fetal thymic organ culture (FTOC); experiment: flow cytometry T cell capture; FTOC in the presence of 10^-2 mM Iα52; polyclonal thymocytes

B1: biotinylated I-A^d in liposomes without peptide (protein, mouse)
MHC II alpha: EDDIEADHVGFYGTTVYQSPGDIGQYTHEFDGDELFYVDLDKKKTVWRLPEFGQLILFEPQGGLQNIAAEKHNLGILTKRSNFTPATNEAPQATVFPKSPVLLGQPNTLICFVDNIFPPVINITWLRNSKSVTDGVYETSFLVNRDHSFHKLSYLTFIPSDDDIYDCKVEHWGLEEPVLKHWEPEIPAPMSELTE
MHC II beta: GNSERHFVVQFKGECYYTNGTQRIRLVTRYIYNREEYVRYDSDVGEYRAVTELGRPDAEYWNSQPEILERTRAEVDTACRHNYEGPETSTSLRRLEQPNVAISLSRTEALNHHNTLVCSVTDFYPAKIKVRWFRNGQEETVGVSSTQLIRNGDWTFQVLVMLEMTPHQGEVYTCHVEHPSLKSPITVEWRAQSESARSK
B1 gave a % of cells bound [1] of 6.9%.

B2: liposome:I-A^d:biotinylated OVA^323-336 peptide complex (peptide-MHC, mouse)
MHC II alpha: B1 MHC II alpha
MHC II beta: B1 MHC II beta
peptide: ISQAVHAAHAEINE
B2 gave a % of cells stained positive [2] of 87.2%.

B3: liposome:I-A^d:biotinylated Hi15 peptide complex (peptide-MHC)
MHC II alpha: B1 MHC II alpha
MHC II beta: B1 MHC II beta
peptide: TSFPMRGDLAKREPDK
With B3 the % positive cells [3] was 8.7%, the % of CD4+ cells positive for both peptides [4] was 31.1% and the % of cells positive [4] was 52%.

B4: liposome:I-A^d:biotinylated Iα52 peptide complex (peptide-MHC, mouse)
MHC II alpha: B1 MHC II alpha
MHC II beta: B1 MHC II beta
peptide: ASFEAQGALANIAVDKA
B4 was tested, and the % of cells bound [5] was 52.8%, the % of CD4+ cells bound [6] was 20.7% and the % of CD4+ T cells specific [7] was 5.4%. The % of CD4+ cells positive for both peptides [4] was 31.1%, the % of CD4+ T cells specific [8] was 0.7% and the % of CD4+ cells bound [9] was 50.9%.
